In paper PMC5844793 (Bioorganic & medicinal chemistry, 2017):
“Also recorded” adds a separate entry of the source. Read-outs that look alike come from different tables or passages of the source. *1 amine or outer side, *2 acyl side, *3 side chain or, on linkers, in order; H or OH if unused. Bridges are numbered along the chain shown (N, C = ends). The star is where a group is joined. fluorescein = fluorescein: a label attached as NHS-fluorescein acylation on the lysine side chain (K*); pXylylene = c1cc(C[*:2])ccc1C[*:1]; Cysteamide = C(CS[*:3])N[*:1]; 4‑pentynyl = C#CCCC*

T1: cNPF1Flu
T1 chain: cyclo(YNPFEEGK(fluorescein))

T2: 1-PX (thioether 1-C via pXylylene (inferred))
T2 chain: {4‑pentynyl}-CYNPFEE-Cysteamide

T3: 4-OX (bridge 1-C; not fully specified (bridges))
T3 chain: {4‑pentynyl}-CNPFEE-Cysteamide

T4: 4-MX (bridge 1-C; not fully specified (bridges))
T4 chain: {4‑pentynyl}-CNPFEE-Cysteamide

T5: 1-MX (thioether 1-C via meta‑xylene)
T5 chain: {4‑pentynyl}-CYNPFEE-Cysteamide

T6: 3-OX (bridge 1-C; not fully specified (bridges))
T6 chain: {4‑pentynyl}-CNPFE-Cysteamide

T7: cNPF1 (backbone cyclic)
T7 chain: YNPFEEGG

T8: 5-OX (linker 1-6 via ortho‑xylene (inferred))
T8 chain: Ac-CNPFEC-OH

T9: 4-PX (bridge 1-C; not fully specified (bridges))
T9 chain: {4‑pentynyl}-CNPFEE-Cysteamide


What was measured:
HeLa cells = test: Cell-based transferrin; details: 50 μM during 60-min pulse and 30-min chase
Flu-1-PX [1] = biological target: Flu-1-PX
cNPF1Flu = biological target: T1, cNPF1Flu; test: fluorescence polarization
Flu-3-OX [2] = biological target: Flu-3-OX
Flu-5-OX [3] = biological target: Flu-5-OX
Flu-4-PX [4] = biological target: Flu-4-PX
1-PX = biological target: T2, 1-PX; test: fluorescence polarization competition
4-OX = biological target: T3, 4-OX; test: fluorescence polarization competition
4-MX = biological target: T4, 4-MX; test: fluorescence polarization competition
1-MX = biological target: T5, 1-MX; test: fluorescence polarization competition
3-OX = biological target: T6, 3-OX; test: fluorescence polarization competition
cNPF1 = biological target: T7, cNPF1; test: fluorescence polarization competition
5-OX = biological target: T8, 5-OX; test: fluorescence polarization competition
4-PX = biological target: T9, 4-PX; test: fluorescence polarization competition
Flu-5-OX [5] = biological target: Flu-5-OX; remark: listed apart in the source
Flu-3-OX [6] = biological target: Flu-3-OX; remark: listed apart in the source
Flu-1-PX [7] = biological target: Flu-1-PX; remark: listed apart in the source
Flu-4-PX [8] = biological target: Flu-4-PX; remark: listed apart in the source

| Molecule | effect on trafficking/recycling of Tf-488 (HeLa cells) | Kd (Flu-1-PX [1]) [µM] | Kd (cNPF1Flu) [µM] | Kd (Flu-3-OX [2]) [µM] | Kd (Flu-5-OX [3]) [µM] | Kd (Flu-4-PX [4]) [µM] | IC50 (1-PX) [µM] | IC50 (4-OX) [µM] | IC50 (4-MX) [µM] | IC50 (1-MX) [µM] | IC50 (3-OX) [µM] | IC50 (cNPF1) [µM] | IC50 (5-OX) [µM] | IC50 (4-PX) [µM] | Kd (Flu-5-OX [5]) [µM] | Kd (Flu-3-OX [6]) [µM] | Kd (Flu-1-PX [7]) [µM] | Kd (Flu-4-PX [8]) [µM] |
| --- | --- | --- | --- | --- | --- | --- | --- | --- | --- | --- | --- | --- | --- | --- | --- | --- | --- | --- |
| COc1cc(NC(C)CCCN)c2ncccc2c1 (stereo not drawn) [primaquine] | increased signal following the chase, consistent with impaired recycling of internalized Tf-488; also recorded: inhibition of recycling |  |  |  |  |  |  |  |  |  |  |  |  |  |  |  |  |  |
| EHD1-EH EH domain (protein) VGKDKPTYDEIFYTLSPVNGKITGANAKKEMVKSKLPNTVLGKIWKLADVDKDGLLDDEEFALANHLIKVKLEGHELPADLPPHLVPPSKRRHE |  | 6 | 3 | 4.5 | 7.3 | 8.1 | 27.1 | 62.8 | 88.1 | 68.8 | 76.5 | 55.5 | 34 | 38.9 | 1.6 | 14.6 | 1.1 | 1.8 |
